The source of these data is IntAct's records for PubMed 25727097.

First the molecules themselves.
B1: 5-hydroxytryptamine receptor 2C (Homo sapiens), P28335-1 (parent)
chain: MVNLRNAVHSFLVHLIGLLVWQSDISVSPVAAIVTDIFNTSDGGRFKFPDGVQNWPALSIVIIIIMTIGGNILVIMAVSMEKKLHNATNYFLMSLAIADMLVGLLVMPLSLLAILYDYVWPLPRYLCPVWISLDVLFSTASIMHLCAISLDRYVAIRNPIEHSRFNSRTKAIMKIAIVWAISIGVSVPIPVIGLRDEEKVFVNNTTCVLNDPNFVLIGSFVAFFIPLTIMVITYCLTIYVLRRQALMLLHGHTEEPPGLSLDFLKCCKRNTAEEENSANPNQDQNARRRKKKERRPRGTMQAINNERKASKVLGIVFFVFLIMWCPFFITNILSVLCEKSCNQKLMEKLLNVFVWIGYVCSGINPLVYTLFNKIYRRAFSNYLRCNYKVEKKPPVRQIPRVAATALSGRELNVNIYRHTNEPVIEKASDNEPGIEMQVENLELPVNPSSVVSERISSV

Variants of B1 are the subject of this assay. To be noted: with GHSR.
With MVNLRNAVHSFLVHLIGLLVWQSDISVSPVAAIVTDIFNTSDGGRFKFPDGVQNWPALSIVIIIIMTIGGNILVIMAVSMEKKLHNATNYFLMSLAIADMLVGLLVMPLSLLAILYDYVWPLPRYLCPVWISLDVLFSTASIMHLCAISLDRYVAVRSPVEHSRFNSRTKAIMKIAIVWAISIGVSVPIPVIGLRDEEKVFVNNTTCVLNDPNFVLIGSFVAFFIPLTIMVITYCLTIYVLRRQALMLLHGHTEEPPGLSLDFLKCCKRNTAEEENSANPNQDQNARRRKKKERRPRGTMQAINNERKASKVLGIVFFVFLIMWCPFFITNILSVLCEKSCNQKLMEKLLNVFVWIGYVCSGINPLVYTLFNKIYRRAFSNYLRCNYKVEKKPPVRQIPRVAATALSGRELNVNIYRHTNEPVIEKASDNEPGIEMQVENLELPVNPSSVVSERISSV [I156V;N158S;I160V], the “effect of a mutation on the interaction” value is listed as “increasing interaction strength”.
